Laboratory results from patent US20210008166A1 (SPECTRUM PHARMACEUTICALS, published 2021).

Columns and labels:
[1] = target: GLP-1R on CHO cells (CHO/GLP-1R); assay: cell-based or functional assay
[2] = target: T1, Chinese hamster ovary (CHO) cell-derived soluble recombinant human G-CSF receptor (R&D Systems, 381-050/CF) (human, UniProt Q99062 25-627); assay: SPR (BIAcore 3000), receptor amine-coupled to CM5 chip, analyte 6.25-100 nmol/L, 25 C, 1:1 Langmuir fit
T1 construct: extracellular domain; Bought and amine-coupled to a CM5 chip; also called soluble human G-CSF receptor
T1 sequence (looked up): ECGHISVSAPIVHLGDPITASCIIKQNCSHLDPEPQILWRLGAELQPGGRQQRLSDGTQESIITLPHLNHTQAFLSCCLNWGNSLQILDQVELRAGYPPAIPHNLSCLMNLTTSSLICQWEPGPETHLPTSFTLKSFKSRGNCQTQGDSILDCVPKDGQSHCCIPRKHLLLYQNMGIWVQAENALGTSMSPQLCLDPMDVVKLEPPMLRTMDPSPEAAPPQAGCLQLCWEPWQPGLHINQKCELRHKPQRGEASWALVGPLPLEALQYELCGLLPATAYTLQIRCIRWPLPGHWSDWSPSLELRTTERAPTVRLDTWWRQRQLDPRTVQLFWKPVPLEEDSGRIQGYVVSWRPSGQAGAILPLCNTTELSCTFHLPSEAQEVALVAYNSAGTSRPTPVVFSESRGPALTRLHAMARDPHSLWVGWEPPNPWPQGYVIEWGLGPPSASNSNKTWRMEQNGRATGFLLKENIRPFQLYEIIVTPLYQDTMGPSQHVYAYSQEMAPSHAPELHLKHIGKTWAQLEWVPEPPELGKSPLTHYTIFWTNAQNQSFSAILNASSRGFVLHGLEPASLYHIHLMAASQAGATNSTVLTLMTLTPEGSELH
Description: Surface plasmon resonance technology and the BIAcore 3000 biosensor (GE healthcare) were employed to measure in vitro binding affinity to the G-CSF receptor. Amine-coupling chemistry was used to immobilize the G-CSF receptor on CM5 biosensor chip. […] The CM5 sensor chip surface was activated by injecting a 1:1 mixture of 0.1 mol/L N-hydroxysuccinimide (GE healthcare) and 0.1 mol/L 3-(N,N-dimethylamino)propyl-N-ethylcarbodiamide (GE Healthcare). […] The chip surface was then blocked with ethanolamine/HCl (GE Healthcare), pH 8.5, and washed with a regeneration solution (50 mmol/L NaCl; 5 mmol/L NaOH). […] Binding affinity was calculated using the 1:1 Langmuir fitting model for each test material.

[3] = target: T2, Fc fragment of eflapegrastim (human, UniProt P01861 107-325 = IgG part, aglycosylated (manufactured from recombinant E. coli cells)); assay: ELISA with GST-FcγRIIB, anti-GST detection
T2 construct: Unconjugated Fc carrier tested alongside eflapegrastim; also called aglycosylated human IgG4 Fc fragment; immunoglobulin Fc region (IgG4)
Procedure: For C1q, FcγRIIB, FcγRIIIA, and FcRn binding assays, serial dilutions of the test materials were added to 96-well microplates coated with C1q, or GST fusion proteins of FcγRIIB or FcγRIIIA, or FcRn αβ2. After incubation and washing, HRP-conjugated anti-C1q antibody was added for C1q binding assay, and rabbit-anti-GST antibody and HRP-conjugated anti-rabbit IgG antibody were sequentially added for FcγRIIB, FcγRIIIA, and FcRn binding assays. The absorbance was measured at 450 nm as described above for FcγRI binding assay.

T2 sequence (P01861 other isoform, or with tags, fused parts or gaps limits assumed): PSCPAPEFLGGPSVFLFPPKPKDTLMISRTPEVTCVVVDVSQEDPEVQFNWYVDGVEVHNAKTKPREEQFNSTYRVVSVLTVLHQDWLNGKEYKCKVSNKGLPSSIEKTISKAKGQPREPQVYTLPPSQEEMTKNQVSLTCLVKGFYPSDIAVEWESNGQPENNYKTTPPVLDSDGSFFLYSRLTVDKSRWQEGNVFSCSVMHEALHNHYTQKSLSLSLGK

## CA Exendin (lysine)-PEG-(N-terminus) Fc - Experimental group (Fc fusion)
[1]
  potency relative to the isomer linked at another position of Fc: 6 times

## CA Exendin (lysine)-PEG-(lysine) Fc (Fc fusion)
[1]
  % vs. Experimental group: 16.1%
  EC50 (ng/ml), in vitro activity: 590 ng/mL

B1: Pegfilgrastim (Neulasta) (ligand, UniProt P09919-2 31-204, looked up)
chain: TPLGPASSLPQSFLLKCLEQVRKIQGDGAALQEKLCATYKLCHPEELVLLGHSLGIPWAPLSSCPSQALQLAGCLSQLHSGLFLYQGLLQALEGISPELGPTLDTLQLDVADFATTIWQQMEELGMAPALQPTQGAMPAFASAFQRRAGGVLVASHLQSFLEVSYRVLRHLAQP
modifications: 20 kDa polyethylene glycol on the N-terminal methionine residue
notes: Commercial product
[2]
  Kd: 2.9 nM

B2: GST fusion protein of FcγRIIB (receptor, UniProt P31994 43-217, looked up)
chain: TPAAPPKAVLKLEPQWINVLQEDSVTLTCRGTHSPESDSIQWFHNGNLIPTHTQPSYRFKANNNDSGEYTCQTGQTSLSDPVHLTVLSEWLVLQTPHLEFQEGETIVLRCHSWKDKPLVKVTFFQNGKSKKFSRSDPNFSIPQANHSHSGDYHCTGNIGYTLYSSKPVTITVQAP
notes: not shown: GST
[3]
  binding result: no binding
